Measured values taken from patent US20220025021A1 (BETH ISRAEL DEACONESS MEDICAL CENTER, published 2022).

Legend:
Assay in all cases: cell-based or functional assay
[1] = molecular target: HIV-1 envelope glycoprotein of pseudovirus 0260.v5.c36 (HIV-1)
[2] = molecular target: HIV-1 envelope glycoprotein of pseudovirus RHPA4259.7 (HIV-1)
[3] = molecular target: HIV-1 envelope glycoprotein of pseudovirus CNE52 (HIV-1)
[4] = molecular target: HIV-1 envelope glycoprotein of pseudovirus DU172.17 (HIV-1)
[5] = molecular target: HIV-1 envelope glycoprotein of pseudovirus BB1012-11.TC21 (HIV-1)
[6] = molecular target: HIV-1 envelope glycoprotein of pseudovirus SC422661.8 (HIV-1)

Binder | IC50 (neutralization in TZM.bl cells) [1] [µg/mL] | IC80 (neutralization in TZM.bl cells) [1] [µg/mL] | IC50 (neutralization in TZM.bl cells) [2] [µg/mL] | IC80 (neutralization in TZM.bl cells) [2] [µg/mL] | IC50 (neutralization in TZM.bl cells) [3] [µg/mL] | IC80 (neutralization in TZM.bl cells) [3] [µg/mL] | IC50 (neutralization in TZM.bl cells) [4] [µg/mL] | IC80 (neutralization in TZM.bl cells) [4] [µg/mL] | IC50 (neutralization in TZM.bl cells) [5] [µg/mL] | IC80 (neutralization in TZM.bl cells) [5] [µg/mL] | IC50 (neutralization in TZM.bl cells) [6] [µg/mL] | IC80 (neutralization in TZM.bl cells) [6] [µg/mL]
MS-95 (antibody) VH: not shown VL: DIVLTQSPHSLSVTPGESASISCKSSHSLIHGDRNNYLAWYVQKPGRSPQLLIYLASSRASGVPDRFSGSGSGKDFTLKISRVETEDVGTYYCMQGRESPWTFGQGTKVDIKRTVAAPSVFIFPPSDEQLKSGTASVVCLLNNFYPREAKVQWKVDNALQSGNSQESVTEQDSKDSTYSLSSTLTLSKADYEKHKVYACEVTHQGLSSPVTKSFNRGEC | 0.022 | 0.06 | 0.208 | 0.69 | 0.567 | 5.05 | 1.97 | 7.07 | 0.044 | 0.117 | 0.433 | 2.88
MS-94 (antibody) VH: not shown VL: DIVLTQSPHSLSVTPGEPASISCKSSHSLIHGDRNNYLAWYVQKPGRSPQLLIYLASSRASGVPDRFSGSGSDKDFTLKISRVETEDVGTYYCMQGRESPWTFGQGTKVDIKRTVAAPSVFIFPPSDEQLKSGTASVVCLLNNFYPREAKVQWKVDNALQSGNSQESVTEQDSKDSTYSLSSTLTLSKADYEKHKVYACEVTHQGLSSPVTKSFNRGEC | 0.027 | 0.095 | 0.358 | 0.985 | 0.455 | 5.18 | 3.03 | 11.2 | 0.055 | 0.146 | 0.315 | 1.23
MS-99 (antibody) VH: not shown VL: DFVLTQSPLSLSVTPGESASISCKSSHSLIHGDRNNYLAWYVQKPGRSPQLLIYLASSRASGVPDRFSGSGSDKDFTLKISRVEAEDVGTYYCMQGRESPWTFGQGTKVDIKRTVAAPSVFIFPPSDEQLKSGTASVVCLLNNFYPREAKVQWKVDNALQSGNSQESVTEQDSKDSTYSLSSTLTLSKADYEKHKVYACEVTHQGLSSPVTKSFNRGEC | 0.024 | 0.087 | 0.257 | 0.718 | 0.219 | 1.8 | 1.95 | 7.14 | 0.032 | 0.084 | 0.294 | 1.46
MS-101 (antibody) VH: not shown VL: DFVLTQSPHSLSVTPGEPASISCKSSHSLIHGDRNNYLAWYVQKPGRSPQLLIYLASSRASGVPDRFSGSGSDKDFTLKISRVEAEDVGTYYCMQGRESPWTFGQGTKVDIKRTVAAPSVFIFPPSDEQLKSGTASVVCLLNNFYPREAKVQWKVDNALQSGNSQESVTEQDSKDSTYSLSSTLTLSKADYEKHKVYACEVTHQGLSSPVTKSFNRGEC | 0.025 | 0.069 | 0.227 | 0.816 | 0.145 | 1.23 | 2.41 | 6.88 | 0.037 | 0.121 | 0.251 | 1.88
MS-103 (antibody) VH: not shown VL: DIVLTQSPLSLSVTPGEPASISCKSSHSLIHGDRNNYLAWYVQKPGRSPQLLIYLASSRASGVPDRFSGSGSDKDFTLKISRVETEDVGTYYCMQGRESPWTFGQGTKVDIKRTVAAPSVFIFPPSDEQLKSGTASVVCLLNNFYPREAKVQWKVDNALQSGNSQESVTEQDSKDSTYSLSSTLTLSKADYEKHKVYACEVTHQGLSSPVTKSFNRGEC | 0.03 | 0.104 | 0.29 | 1.33 | 0.432 | 4.18 | 2.68 | 10.2 | 0.046 | 0.155 | 0.408 | 1.99
MS-96 (antibody) VH: not shown VL: DIVLTQSPHSLSVTPGESASISCKSSHSLIHGDRNNYLAWYVQKPGRSPQLLIYLASSRASGVPDRFSGSGSDKDFTLKISRVEAEDVGTYYCMQGRESPWTFGQGTKVDIKRTVAAPSVFIFPPSDEQLKSGTASVVCLLNNFYPREAKVQWKVDNALQSGNSQESVTEQDSKDSTYSLSSTLTLSKADYEKHKVYACEVTHQGLSSPVTKSFNRGEC | 0.026 | 0.093 | 0.252 | 1.14 | 0.543 | 5.36 | 3.58 | 13 | 0.047 | 0.195 | 0.397 | 2.82
